Measurements published in patent US12428446B2, “Peptide compound or pharmaceutically acceptable salt thereof” (Eyebio Korea, priority 2019, dated 2025).
*1 amine or outer side, *2 acyl side, *3 side chain or, on linkers, in order; H or OH if unused. Primed or numbered codes have the meaning given here. Where no end group is shown, it is not given here. [ ]: non-standard residue; d: D form. The star is where a group is joined. Pro(trans-4-NH2) = O=C([C@@H]1C[C@@H](N[*:3])CN1[*:1])[*:2]; Pro(cis-4-F) = O=C(O)[C@@H]1C[C@H](F)CN1; Pro(4,4-F2) = O=C(O)[C@@H]1CC(F)(F)CN1; Pro(4,4-Me2) = CC1(C)CN[C@H](C(=O)O)C1; Asu′ = aspartimide (aminosuccinimide); Hyp = O=C(O)[C@@H]1C[C@@H](O)CN1; dHyp = O=C(O)[C@H]1C[C@H](O)CN1; Aib = CC(C)(N)C(=O)O; OiPr = CC(C)O*

Assay: Evaluation of dissolution stability (content change on storage in dissolved state)
Assay type: physicochemical
Conditions: 1 mg/1 ml dissolved state, 40° C. and RH 75%

| Substance | Day 1 content (%) | Day 3 content (%) | Day 7 content (%) | Initial content (%) |
| --- | --- | --- | --- | --- |
| trans-4NH2-Pro-Gly-Gln-Asp-Gly-Leu-Ala ([Pro(trans-4-NH2)]GQDGLA) [Example 52] | 86.35% | 74.65% | 54.51% | 96.55% |
| Hyp-Gly-Gln-Ala-Gly-Leu ([Hyp]GQAGL) [Example 122] | 98.66% | 98.56% | 98.27% | 98.82% |
| Hyp-Gly-Gln-Ala-Gly ([Hyp]GQAG) [Example 13] | 98.39% | 98.04% | 97.64% | 98.51% |
| Hyp-Gly-Gln-Asp-Gly-D Leu ([Hyp]GQDG[dL]) [Example 62] | 92.60% | 84.99% | 70.41% | 97.24% |
| 4,4-difluoro-Pro-Gly-Gln-Asp-Gly-Leu-Ala ([Pro(4,4-F2)]GQDGLA) [Example 53] | 87.14% | 76.02% | 62.88% | 94.88% |
| Hyp-Gly-Gln-Asp-Gly-Leu-Ala (isopropyl ester) ([Hyp]GQDGLA-OiPr) [Example 108] | 67.07% | 62.81% | 59.24% | 79.49% |
| Hyp-Gly-Gln-Asp-Gly-D Leu-Ala ([Hyp]GQDG[dL]A) [Example 65] | 92.97% | 86.96% | 75.40% | 95.64% |
| trans-4NH2-Pro-Gly-Gln-Asp-Gly ([Pro(trans-4-NH2)]GQDG) [Example 42] | 65.09% | 52.07% | 37.87% | 71.84% |
| Asu-Gly-Leu-Ala-Gly-Pro-Lys ([Asu′]GLAGPK) [Example 105] | 54.80% | 41.83% | 31.24% | 89.11% |
| 4,4-difluoro-Pro-Gly-Gln-Asp-Gly-Leu ([Pro(4,4-F2)]GQDGL) [Example 48] | 84.40% | 76.53% | 53.82% | 92.71% |
| D Hyp-Gly-Gln-Asp-Gly-Leu-Ala ([dHyp]GQDGLA) [Example 50] | 89.44% | 80.15% | 56.11% | 96.67% |
| [dHyp]GQDG [Example 40] | 81.96% | 70.04% | 51.11% | 89.95% |
| Hyp-Gly-Gln-D Asp-Leu ([Hyp]GQ[dD]L) [Example 125] | 97.15% | 95.07% | 88.48% | 98.28% |
| Hyp-Gly-Gln-Asp-Ala-Leu ([Hyp]GQDAL) [Example 36] | 94.13% | 90.58% | 85.95% | 95.40% |
| Gln-Asu-Gly-Leu-Ala-Gly (Q[Asu′]GLAG) [Example 118] | 92.71% | 85.67% | 79.33% | 96.15% |
| Hyp-Gly-Gln-Asp-Gly (isopropyl ester) [Example 106] | 81.47% | 75.61% | 68.25% | 89.54% |
| Hyp-Gly-Gln-Glu-Aib-Leu-Ala ([Hyp]GQE[Aib]LA) [Example 92] | 97.05% | 96.92% | 96.56% | 96.92% |
| PGQDGLA [Example 78] | 92.18% | 85.14% | 74.01% | 97.41% |
| Hyp-Gly-Gln-Asu-Gly-Leu-Ala (isopropyl ester) [Example 113] | 92.40% | 85.41% | 72.35% | 93.25% |
| Hyp-Gly-Gln-Asp-Leu-Leu-Ala ([Hyp]GQDLLA) [Example 38] | 92.19% | 88.19% | 85.93% | 97.06% |
| DGLAGP [Example 31] | 85.08% | 78.24% | 60.99% | 91.42% |
| Hyp-Gly-Leu-Ala-Gly-Pro-Lys ([Hyp]GLAGPK) [Example 27] | 98.16% | 98.15% | 98.16% | 98.24% |
| [Hyp]GQ[dD]GLA [Example 64] | 91.62% | 86.18% | 48.37% | 96.19% |

| Substance | Day 1 content (%) | Day 3 content (%) | Day 7 content (%) | Initial content (%) |
| --- | --- | --- | --- | --- |
| Hyp-Gly-Gln-Ala-Val ([Hyp]GQAV) [Example 119] | 96.33% | 96.18% | 95.89% | 96.39% |
| Hyp-Gly-Gln-Asp (isopropyl ester)-Gly-Leu (isopropyl ester) [Example 112] | 92.78% | 86.07% | 80.91% | 95.34% |
| 4,4-dimethyl Pro-Gly-Gln-Asp-Gly-Leu-Ala ([Pro(4,4-Me2)]GQDGLA) [Example 57] | 75.20% | 71.82% | 53.88% | 91.95% |
| Hyp-Gly-Gln-Ala-Gly-Leu-Ala ([Hyp]GQAGLA) [Example 14] | 96.58% | 96.07% | 95.55% | 97.13% |
| Hyp-Gly-Gln-Leu-Val-Leu ([Hyp]GQLVL) [Example 99] | 99.44% | 99.28% | 99.15% | 99.45% |
| Hyp-Gly-Gln-Asp (isopropyl ester)-Gly-Leu ([Hyp]GQD(OiPr)GL) [Example 116] | 85.82% | 84.31% | 83.50% | 88.64% |
| Pro-Gly-Gln-Asp-Gly (PGQDG) [Example 76] | 90.01% | 82.34% | 69.13% | 95.07% |
| trans-4NH2-Pro-Gly-Gln-Asp-Gly-Leu ([Pro(trans-4-NH2)]GQDGL) [Example 47] | 84.03% | 75.02% | 51.42% | 94.90% |
| DGLAGPK [Example 19] | 89.94% | 79.26% | 71.50% | 95.90% |
| Hyp-Gly-Gln-Leu-Val ([Hyp]GQLV) [Example 95] | 98.62% | 98.10% | 97.78% | 98.64% |
| Hyp-Gly-Gln-Asn-Gly-Leu-Ala ([Hyp]GQNGLA) [Example 79] | 97.87% | 81.04% | 76.89% | 94.36% |
| Hyp-Gly-Gln-His-Gly-Leu ([Hyp]GQHGL) [Example 82] | 92.51% | 85.09% | 79.04% | 97.54% |
| Hyp-Gly-Gln-Leu-Leu ([Hyp]GQLL) [Example 121] | 99.29% | 99.13% | 99.22% | 99.39% |
| D Hyp-Gly-Gln-Asp-Gly-Leu ([dHyp]GQDGL) [Example 45] | 86.74% | 69.07% | 56.03% | 94.45% |
| Hyp-Gly-Gln-Ala-Val-Leu ([Hyp]GQAVL) [Example 124] | 99.22% | 99.11% | 98.97% | 99.40% |
| Hyp-Gly-Gln-Asp-Aib-Leu-Ala ([Hyp]GQD[Aib]LA) [Example 83] | 95.35% | 94.70% | 94.00% | 95.42% |
| cis-4F Pro-Gly-Gln-Asp-Gly-Leu-Ala ([Pro(cis-4-F)]GQDGLA) [Example 51] | 83.35% | 72.55% | 49.31% | 92.07% |
| Hyp-Gly-Gln-Asu-Gly-Leu (isopropyl ester) [Example 111] | 90.71% | 82.07% | 69.37% | 97.48% |
| Hyp-Gly-Gln-Asp-Gly-Val ([Hyp]GQDGV) [Example 71] | 93.07% | 88.76% | 82.04% | 95.21% |
| Hyp-Gly-D Gln-Asp-Gly ([Hyp]G[dQ]DG) [Example 58] | 98.01% | 97.85% | 97.56% | 98.03% |
| Hyp-Gly-Gln-Glu-Val-Leu ([Hyp]GQEVL) [Example 89] | 99.07% | 98.81% | 98.43% | 99.57% |
| [Hyp]G[dQ]DGLA [Example 63] | 88.74% | 81.41% | 64.20% | 94.37% |
| GLAGPK [Example 26] | 89.41% | 87.99% | 85.43% | 92.17% |
